These results are taken from patent publication US20170210824A1.

The experiment concerns the target Peptide-3B (NME1 H118, 1-pTza) (mammalian). Description: peptide dot blot array.

Turning to 1-pHis mAb SC1-1 (antibody), the lowest amount detected was 1 ng.
